Results on five variants are retold here after IntAct's records for PubMed 31515488.

B1: Leucine rich adaptor protein 1 (Homo sapiens), Q96LR2 (parent)
chain: MEGTVESQTPDLRDVEGKVGRKTPEGLLRGLRGECELGTSGALLLPGASSTGHDLGDKIMALKMELAYLRAIDVKILQQLVTLNEGIEAVRWLLEERGTLTSHCSSLTSSQYSLTGGSPGRSRRGSWDSLPDTSTTDRLDSVSIGSFLDTVAPSELDEQGPPGAPRSEMDWAKVIAGGERARTEVDVAATRLGSLRAVWKPPGERLQGGPPESPEDESAKLGFEAHWFWEQCQDDVTFL
partner: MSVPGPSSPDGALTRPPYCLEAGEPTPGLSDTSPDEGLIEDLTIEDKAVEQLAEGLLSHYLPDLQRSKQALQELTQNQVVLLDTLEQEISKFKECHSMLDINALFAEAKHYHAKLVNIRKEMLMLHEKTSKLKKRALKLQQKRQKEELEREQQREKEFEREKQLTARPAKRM
B2: Protein FAM9B (Homo sapiens), Q8IZU0 (parent)
chain: MAAWGKKHAGKDPVRDECEERNRFTETREEDVTDEHGEREPFAETDEHTGANTKKPEDTAEDLTAKRKRMKMDKTCSKTKNKSKHALRKKQLKRQKRDYIHSLKLLNVLEEYITDEQKEEEEEEGEEEELIRIFQEQQKKWQQYRSVRRERLKEMKLLRDQFVKALEDFEDLCDRVFSDEDSELDN
partner: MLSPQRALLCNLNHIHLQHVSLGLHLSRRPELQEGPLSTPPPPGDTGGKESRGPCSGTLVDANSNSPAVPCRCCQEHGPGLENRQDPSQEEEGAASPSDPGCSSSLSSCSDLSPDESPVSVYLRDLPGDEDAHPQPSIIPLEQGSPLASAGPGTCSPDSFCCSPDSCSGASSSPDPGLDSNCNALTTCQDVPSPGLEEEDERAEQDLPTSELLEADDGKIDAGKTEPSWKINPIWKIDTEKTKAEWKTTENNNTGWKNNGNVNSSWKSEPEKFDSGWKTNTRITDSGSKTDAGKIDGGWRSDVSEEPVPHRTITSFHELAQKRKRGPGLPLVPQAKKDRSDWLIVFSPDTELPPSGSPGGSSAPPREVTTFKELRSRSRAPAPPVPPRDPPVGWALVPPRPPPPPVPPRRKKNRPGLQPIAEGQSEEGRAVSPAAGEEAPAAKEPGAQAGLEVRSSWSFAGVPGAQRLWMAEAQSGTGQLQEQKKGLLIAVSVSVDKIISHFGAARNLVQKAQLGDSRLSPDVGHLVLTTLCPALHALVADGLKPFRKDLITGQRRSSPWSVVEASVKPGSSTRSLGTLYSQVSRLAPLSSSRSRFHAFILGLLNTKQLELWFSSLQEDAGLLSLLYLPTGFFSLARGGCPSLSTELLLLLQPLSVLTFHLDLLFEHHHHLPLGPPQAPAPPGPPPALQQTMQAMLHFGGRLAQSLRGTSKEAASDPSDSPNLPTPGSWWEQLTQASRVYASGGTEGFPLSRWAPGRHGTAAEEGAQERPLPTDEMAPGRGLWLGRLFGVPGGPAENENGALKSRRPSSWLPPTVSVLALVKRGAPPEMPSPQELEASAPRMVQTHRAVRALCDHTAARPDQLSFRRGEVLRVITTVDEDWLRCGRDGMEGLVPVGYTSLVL
B3: Atos homolog protein B (Homo sapiens), Q7L5A3 (parent)
chain: MRHVQAEPSPSSEPEAGPSQPPVRQGALQGGLLMGYSPAGGATSPGVYQVSIFSPPAGTSEPHRALKRQAPSTEGPRELKRGPGLGAREGLPPEEPSTVGLLGPEGPGLGLGVASQHFSHRGLCVVEQRSSVTSSWTSGAWSPPCPPSNASCNTLHTRDWASPDPGGQGSLGESPGPAPPGQLHTLDTDLHSLAQIGGKSPVAGVGNGGSLWPRESPGTANGHSPEHTPPGPGPPGPCPTKRRLLPAGEAPDVSSEEEGPAPRRRRGSLGHPTAANSSDAKATPFWSHLLPGPKEPVLDPTDCGPMGRRLKGARRLKLSPLRSLRKGPGLLSPPSASPVPTPAVSRTLLGNFEESLLRGRFAPSGHIEGFTAEIGASGSYCPQHVTLPVTVTFFDVSEQNAPAPFLGIVDLNPLGRKGYSVPKVGTVQVTLFNPNQTVVKMFLVTFDFSDMPAAHMTFLRHRLFLVPVGEEGNANPTHRLLCYLLHLRFRSSRSGRLSLHGDIRLLFSRRSLELDTGLPYELQAVTEAPHNPRYSPLP
B4: Caspase recruitment domain-containing protein 9 (Homo sapiens), Q9H257 (parent)
chain: MSDYENDDECWSVLEGFRVTLTSVIDPSRITPYLRQCKVLNPDDEEQVLSDPNLVIRKRKVGVLLDILQRTGHKGYVAFLESLELYYPQLYKKVTGKEPARVFSMIIDASGESGLTQLLMTEVMKLQKKVQDLTALLSSKDDFIKELRVKDSLLRKHQERVQRLKEECEAGSRELKRCKEENYDLAMRLAHQSEEKGAALMRNRDLQLEIDQLKHSLMKAEDDCKVERKHTLKLRHAMEQRPSQELLWELQQEKALLQARVQELEASVQEGKLDRSSPYIQVLEEDWRQALRDHQEQANTIFSLRKDLRQGEARRLRCMEEKEMFELQCLALRKDSKMYKDRIEAILLQMEEVAIERDQAIATREELHAQHARGLQEKDALRKQVRELGEKADELQLQVFQCEAQLLAVEGRLRRQQLETLVLSSDLEDGSPRRSQELSLPQDLEDTQLSDKGCLAGGGSPKQPFAALHQEQVLRNPHDAGLSSGEPPEKERRRLKESFENYRRKRALRKMQKGWRQGEEDRENTTGSDNTDTEGS
partner: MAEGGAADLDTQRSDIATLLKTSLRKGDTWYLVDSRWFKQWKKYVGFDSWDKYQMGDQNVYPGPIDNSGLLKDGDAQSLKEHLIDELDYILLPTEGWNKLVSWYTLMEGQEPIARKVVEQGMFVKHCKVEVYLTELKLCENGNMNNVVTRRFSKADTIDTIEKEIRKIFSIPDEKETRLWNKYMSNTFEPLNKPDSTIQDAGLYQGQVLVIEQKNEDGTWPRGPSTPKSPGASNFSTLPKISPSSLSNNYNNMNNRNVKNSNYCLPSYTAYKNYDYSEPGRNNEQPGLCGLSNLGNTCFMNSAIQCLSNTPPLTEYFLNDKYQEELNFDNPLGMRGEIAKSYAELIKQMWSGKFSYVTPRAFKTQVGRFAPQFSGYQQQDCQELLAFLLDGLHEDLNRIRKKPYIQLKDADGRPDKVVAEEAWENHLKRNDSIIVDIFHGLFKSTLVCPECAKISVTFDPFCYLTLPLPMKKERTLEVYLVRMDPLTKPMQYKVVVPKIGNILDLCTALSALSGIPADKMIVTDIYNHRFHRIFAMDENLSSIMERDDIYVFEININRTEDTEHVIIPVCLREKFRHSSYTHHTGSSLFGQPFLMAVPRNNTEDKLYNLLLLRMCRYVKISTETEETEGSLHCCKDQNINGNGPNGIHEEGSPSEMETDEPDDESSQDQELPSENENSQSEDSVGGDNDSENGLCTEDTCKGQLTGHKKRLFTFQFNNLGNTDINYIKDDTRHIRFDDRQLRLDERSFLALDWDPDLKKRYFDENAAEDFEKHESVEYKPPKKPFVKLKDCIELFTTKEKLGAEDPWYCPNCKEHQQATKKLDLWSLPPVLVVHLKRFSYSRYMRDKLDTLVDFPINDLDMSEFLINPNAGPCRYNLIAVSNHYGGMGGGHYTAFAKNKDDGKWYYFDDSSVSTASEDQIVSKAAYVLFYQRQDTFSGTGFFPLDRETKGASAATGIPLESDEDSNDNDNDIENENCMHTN

The variants in one test derive from B1. Particulars: with bl1s6_human BLOC1S6, Q9UL45.
With Q207R, the “effect of a mutation on the interaction” value is recorded as “disrupting interaction strength”.

Consider M60L, for which the “effect of a mutation on the interaction” value is “with no effect”.

In another test the parent is B2. To be noted: with rusc1_human RUSC1, Q9BVN2.
In the case of R23H, the “effect of a mutation on the interaction” value was “with no effect”.

The variants in a further test derive from B3. Particulars: with dnja3_human DNAJA3, Q96EY1.
Sequence of dnja3_human DNAJA3, Q96EY1 (Q96EY1 whole entry): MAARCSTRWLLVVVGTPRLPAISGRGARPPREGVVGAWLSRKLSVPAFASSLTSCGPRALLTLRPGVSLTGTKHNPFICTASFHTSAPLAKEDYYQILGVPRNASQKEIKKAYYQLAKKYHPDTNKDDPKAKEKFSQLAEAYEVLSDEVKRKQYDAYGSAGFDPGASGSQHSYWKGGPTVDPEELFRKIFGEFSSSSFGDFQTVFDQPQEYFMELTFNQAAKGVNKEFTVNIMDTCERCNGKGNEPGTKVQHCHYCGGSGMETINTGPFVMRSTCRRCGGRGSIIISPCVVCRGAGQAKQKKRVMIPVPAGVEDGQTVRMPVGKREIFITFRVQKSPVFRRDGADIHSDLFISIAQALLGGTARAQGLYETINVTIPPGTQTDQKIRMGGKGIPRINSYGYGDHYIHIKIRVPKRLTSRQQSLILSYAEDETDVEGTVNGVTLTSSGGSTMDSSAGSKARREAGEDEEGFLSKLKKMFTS
As for A178T, the “effect of a mutation on the interaction” value is “with no effect”.

Variants of B3 are the subject of the next test. To be noted: with cep70_human CEP70, Q8NHQ1.
Sequence of cep70_human CEP70, Q8NHQ1 (Q8NHQ1 whole entry): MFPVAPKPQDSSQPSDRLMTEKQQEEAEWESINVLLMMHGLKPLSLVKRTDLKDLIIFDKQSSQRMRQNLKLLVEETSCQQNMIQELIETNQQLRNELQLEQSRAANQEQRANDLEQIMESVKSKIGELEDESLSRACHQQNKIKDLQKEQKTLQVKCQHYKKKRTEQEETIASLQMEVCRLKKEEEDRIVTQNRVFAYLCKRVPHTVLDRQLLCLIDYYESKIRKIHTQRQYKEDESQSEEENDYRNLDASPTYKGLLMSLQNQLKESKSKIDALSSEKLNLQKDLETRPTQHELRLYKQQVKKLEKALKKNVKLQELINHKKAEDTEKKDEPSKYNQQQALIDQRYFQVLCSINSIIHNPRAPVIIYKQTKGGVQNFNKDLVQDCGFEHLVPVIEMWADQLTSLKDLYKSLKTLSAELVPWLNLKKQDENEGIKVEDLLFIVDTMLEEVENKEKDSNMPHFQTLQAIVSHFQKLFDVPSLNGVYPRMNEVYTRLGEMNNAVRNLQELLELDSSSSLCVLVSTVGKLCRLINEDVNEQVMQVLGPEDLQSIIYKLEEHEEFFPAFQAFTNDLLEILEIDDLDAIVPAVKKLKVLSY
As to A178T, the “effect of a mutation on the interaction” value is recorded as “with no effect”.

Variants of B3 are the subject of the next test. To be noted: with ikzf1_human IKZF1, Q13422.
Sequence of ikzf1_human IKZF1, Q13422 (Q13422 whole entry): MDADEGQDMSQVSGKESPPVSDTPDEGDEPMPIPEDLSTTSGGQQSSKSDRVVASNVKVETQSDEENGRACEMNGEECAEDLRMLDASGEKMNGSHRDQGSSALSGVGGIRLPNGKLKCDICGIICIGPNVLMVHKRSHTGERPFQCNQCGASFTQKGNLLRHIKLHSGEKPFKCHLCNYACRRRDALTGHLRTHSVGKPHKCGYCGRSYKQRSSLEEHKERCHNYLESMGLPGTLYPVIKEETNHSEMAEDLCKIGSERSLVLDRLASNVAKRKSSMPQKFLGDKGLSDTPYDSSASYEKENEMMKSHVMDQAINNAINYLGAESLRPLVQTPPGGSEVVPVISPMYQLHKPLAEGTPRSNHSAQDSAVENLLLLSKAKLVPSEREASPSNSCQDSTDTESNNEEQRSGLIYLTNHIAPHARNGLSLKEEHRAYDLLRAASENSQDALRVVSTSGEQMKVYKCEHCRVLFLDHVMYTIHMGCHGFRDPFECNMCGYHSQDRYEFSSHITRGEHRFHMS
With A178T, the “effect of a mutation on the interaction” value was “with no effect”.

In a further test the parent is B4. Particulars: with ubp15_human USP15, Q9Y4E8.
V385L: the “effect of a mutation on the interaction” value is “disrupting interaction strength”.
